Experimental data: patent US20120329716A1 (UNIVERSITY OF MANITOBA, published 2012)
One block for each binder: values may come before it.

Legend:
[1] = target: T1, Purified human recombinant renin (human, UniProt P00797 67-406); assay: cell-based or functional assay
T1 sequence (looked up): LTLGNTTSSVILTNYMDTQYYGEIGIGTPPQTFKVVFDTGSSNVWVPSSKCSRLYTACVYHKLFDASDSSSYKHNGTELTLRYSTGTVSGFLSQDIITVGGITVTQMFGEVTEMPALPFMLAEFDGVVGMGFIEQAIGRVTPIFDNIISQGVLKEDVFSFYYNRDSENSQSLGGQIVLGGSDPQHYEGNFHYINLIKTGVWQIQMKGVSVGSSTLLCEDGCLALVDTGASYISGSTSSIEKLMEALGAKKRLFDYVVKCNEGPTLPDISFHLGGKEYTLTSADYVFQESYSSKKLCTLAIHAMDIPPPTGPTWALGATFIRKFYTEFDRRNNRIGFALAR

[2] = target: T2, Renin substrate 1 (Arg-Glu(EDANS)-Ile-His-Pro-Phe-His-Leu-Val-Ile-His-Thr-Lys(dabcyl)-Arg)
T2 chain: REIHPFHLVIHTKR

B1: SEQ ID NO. 22 (peptide)
peptide: AHPVAIN
RENIN INHIBITION % [1]: 43.5%

B4: SEQ ID NO. 14 (peptide)
peptide: RAAP
RENIN INHIBITION % [1]: 15.4%

B6: SEQ ID NO. 16 (peptide)
peptide: HPGAG
RENIN INHIBITION % [1]: 21.2%

B7: SEQ ID NO. 15 (peptide)
peptide: WMP
RENIN INHIBITION % [1]: 43.4%

B9: Purified human recombinant renin (protein)
chain: T1 sequence (looked up)
Michaelis-Menten constant (Km) in the absence of peptide fractions [2]: 3.8 µM | Michaelis-Menten constant (Km) in the presence of peptide fraction T4 [2]: increased to 6.3 and 6.1 µM, respectively | Michaelis-Menten constant (Km) in the presence of peptide fraction T5 [2]: increased to 6.3 and 6.1 µM, respectively

B10: SEQ ID NO. 20 (peptide)
peptide: SNILEAA
RENIN INHIBITION % [1]: 24%

B11: SEQ ID NO. 25 (peptide)
peptide: NFLAGPSD
RENIN INHIBITION % [1]: 6.73%

B12: SEQ ID NO. 19 (peptide)
peptide: YPRE
RENIN INHIBITION % [1]: 22.2%

Next, values leading:

RENIN INHIBITION % [1]: 32.4%
B2: SEQ ID NO. 26 (peptide)
peptide: YKKSVSSESDPF

RENIN INHIBITION % [1]: 76.2%
B3: SEQ ID NO. 23 (peptide)
peptide: ADMFPF

RENIN INHIBITION % [1]: 28%
B5: SEQ ID NO. 24 (peptide)
peptide: TNPFPF

RENIN INHIBITION % [1]: 36%
B8: SEQ ID NO. 21 (peptide)
peptide: YAGVSLI

RENIN INHIBITION % [1]: 4.85%
B13: SEQ ID NO. 13 (peptide)
peptide: WLP

RENIN INHIBITION % [1]: 9.3%
B14: SEQ ID NO. 18 (peptide)
peptide: WPHT

RENIN INHIBITION % [1]: 57.5%
B15: SEQ ID NO. 17 (peptide)
peptide: RSPD
